B1: GFAT-1 (human GFAT-1 isoform 2, hGFAT1) (Homo sapiens; R306H) (protein)
chain: CGIFAYLNYHVPRTRREILETLIKGLQRLEYRGYDSAGVGFDGGNDKDWEANACKIQLIKKKGKVKALDEEVHKQQDMDLDIEFDVHLGIAHTRWATHGEPSPVNSHPQRSDKNNEFIVIHNGIITNYKDLKKFLESKGYDFESETDTETIAKLVKYMYDNRESQDTSFTTLVERVIQQLEGAFALVFKSVHFPGQAVGTRRGSPLLIGVRSEHKLSTDHIPILYRTGKDKKGSCNLSRVDSTTCLFPVEEKAVEYYFASDASAVIEHTNRVIFLEDDDVAAVVDGHLSIHRIKRTAGDHPGRAVQTLQMELQQIMKGNFSSFMQKEIFEQPESVVNTMRGRVNFDDYTVNLGGLKDHIKEIQRCRRLILIACGTSYHAGVATRQVLEELTELPVMVELASDFLDRNTPVFRDDVCFFLSQSGETADTLMGLRYCKERGALTVGITNTVGSSISRETDCGVHINAGPEIGVASTKAYTSQFVSLVMFALMMCDDRISMQERRKEIMLGLKRLPDLIKEVLSMDDEIQKLATELYHQKSVLIMGRGYHYATCLEGALKIKEITYMHSEGILAGELKHGPLALVDKLMPVIMIIMRDHTYAKCQNALQQVVARQGRPVVICDKEDTETIKNTKRTIKVPHSVDCLQGILSVIPLQLLAFHLAVLRGYDVDFPRNLAKSVTVE
notes: full length, internal His6-tag between Gly299 and Asp300 (kept), expressed in Sf21 insect cells (MultiBac), Ni-NTA and SEC purified
B2: GFAT-1 (human GFAT-1 isoform 2, hGFAT1) (Homo sapiens; S308D) (protein)
chain: CGIFAYLNYHVPRTRREILETLIKGLQRLEYRGYDSAGVGFDGGNDKDWEANACKIQLIKKKGKVKALDEEVHKQQDMDLDIEFDVHLGIAHTRWATHGEPSPVNSHPQRSDKNNEFIVIHNGIITNYKDLKKFLESKGYDFESETDTETIAKLVKYMYDNRESQDTSFTTLVERVIQQLEGAFALVFKSVHFPGQAVGTRRGSPLLIGVRSEHKLSTDHIPILYRTGKDKKGSCNLSRVDSTTCLFPVEEKAVEYYFASDASAVIEHTNRVIFLEDDDVAAVVDGRLDIHRIKRTAGDHPGRAVQTLQMELQQIMKGNFSSFMQKEIFEQPESVVNTMRGRVNFDDYTVNLGGLKDHIKEIQRCRRLILIACGTSYHAGVATRQVLEELTELPVMVELASDFLDRNTPVFRDDVCFFLSQSGETADTLMGLRYCKERGALTVGITNTVGSSISRETDCGVHINAGPEIGVASTKAYTSQFVSLVMFALMMCDDRISMQERRKEIMLGLKRLPDLIKEVLSMDDEIQKLATELYHQKSVLIMGRGYHYATCLEGALKIKEITYMHSEGILAGELKHGPLALVDKLMPVIMIIMRDHTYAKCQNALQQVVARQGRPVVICDKEDTETIKNTKRTIKVPHSVDCLQGILSVIPLQLLAFHLAVLRGYDVDFPRNLAKSVTVE
notes: as for B1
B3: GFAT-1 (human GFAT-1 isoform 2, hGFAT1) (Homo sapiens; L508R) (protein)
chain: CGIFAYLNYHVPRTRREILETLIKGLQRLEYRGYDSAGVGFDGGNDKDWEANACKIQLIKKKGKVKALDEEVHKQQDMDLDIEFDVHLGIAHTRWATHGEPSPVNSHPQRSDKNNEFIVIHNGIITNYKDLKKFLESKGYDFESETDTETIAKLVKYMYDNRESQDTSFTTLVERVIQQLEGAFALVFKSVHFPGQAVGTRRGSPLLIGVRSEHKLSTDHIPILYRTGKDKKGSCNLSRVDSTTCLFPVEEKAVEYYFASDASAVIEHTNRVIFLEDDDVAAVVDGRLSIHRIKRTAGDHPGRAVQTLQMELQQIMKGNFSSFMQKEIFEQPESVVNTMRGRVNFDDYTVNLGGLKDHIKEIQRCRRLILIACGTSYHAGVATRQVLEELTELPVMVELASDFLDRNTPVFRDDVCFFLSQSGETADTLMGLRYCKERGALTVGITNTVGSSISRETDCGVHINAGPEIGVASTKAYTSQFVSLVMFARMMCDDRISMQERRKEIMLGLKRLPDLIKEVLSMDDEIQKLATELYHQKSVLIMGRGYHYATCLEGALKIKEITYMHSEGILAGELKHGPLALVDKLMPVIMIIMRDHTYAKCQNALQQVVARQGRPVVICDKEDTETIKNTKRTIKVPHSVDCLQGILSVIPLQLLAFHLAVLRGYDVDFPRNLAKSVTVE
notes: as for B1

What follows are proteins tested on NC(=O)CC[C@H](N)C(=O)O (assay: purified protein). Conditions: 6 mM Frc6P, 1 mM APAD, 50 mM KCl, 100 mM potassium phosphate pH 7.5, 37 °C.
Assay type: biochemical, Homo sapiens

B1 and B2 are within error of each other in Km: 1600 ± 270 µM for the first, 1300 ± 230 µM for the second.

For B3, the Km was 1000 ± 100 µM.

Compared with B1, B2 is 3.2-fold lower in kcat: 4.8 ± 0.26 s⁻¹ for the first, 1.5 ± 0.08 s⁻¹ for the second.

Protein B3 has a kcat of 3 ± 0.08 s⁻¹.

First: B1
Second: B2
The kcat/Km of the first is 2.5-fold higher: 3000 M⁻¹ s⁻¹ for the first, 1200 M⁻¹ s⁻¹ for the second.

B3 showed a kcat/Km of 3000 M⁻¹ s⁻¹.

Source: article PMC8041777, “Protein kinase A controls the hexosamine pathway by tuning the feedback inhibition of GFAT-1” (Nature Communications, 2021)
